According to doi:10.1101/2020.05.08.085126:
Read-outs that look alike come from different tables or passages of the source.

T1: His-MBP-STF-HD (Medicago truncatula, UniProt G0ZGT3 85-190)
T1 sequence: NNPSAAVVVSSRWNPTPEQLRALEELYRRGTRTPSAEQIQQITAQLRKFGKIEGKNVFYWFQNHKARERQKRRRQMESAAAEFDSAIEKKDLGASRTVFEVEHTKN


Tests used:
His-MBP-STF-HD [1] = molecular target: T1, His-MBP-STF-HD; test: EMSA
His-MBP-STF-HD [2] = molecular target: T1, His-MBP-STF-HD; test: EMSA; remark: listed apart in the source

Binder	binding result (His-MBP-STF-HD [1])	binding result (His-MBP-STF-HD [2])
MtLOB39 promoter P1 (dsDNA) DNA 1: GACCAATCAATGTTGAAAATGTAGAATATT DNA 2: AATATTCTACATTTTCAACATTGATTGGTC	binds	
MtLOB39 promoter P3 (dsDNA) DNA 1: CTTTCAATTATACATTTTAATTAATATTAATTT DNA 2: AAATTAATATTAATTAAAATGTATAATTGAAAG	binds	
MtLOB38 promoter P2 (dsDNA) DNA 1: TCAAATTTCAAATAGAATAAATTTGAAAGTGATAAATGATTAATTATTTT DNA 2: AAAATAATTAATCATTTATCACTTTCAAATTTATTCTATTTGAAATTTGA		binds
MtLOB38 promoter P1 (dsDNA) DNA 1: AAAAAAAAATTATATATTAATAGTAATAAATAATAAAAAATAAT DNA 2: ATTATTTTTTATTATTTATTACTATTAATATATAATTTTTTTTT		binds
MtLOB39 promoter P2 (dsDNA) DNA 1: TATTCAAATTAATGATTTATTCAATTTT DNA 2: AAAATTGAATAAATCATTAATTTGAATA	binds	
